Data on one molecule can be found in doi:10.1101/2020.06.02.129890 (bioRxiv, 2020).

For the assay, the target named is Rhodopsin (endogenous in mouse retina) (mouse (endogenous in retina), UniProt P15409 1-348). The assay can be described thus: far-Western, overlay or dot blot.

B1: GFP-MYO1C-790-1028 (MYO1C tail domain, also known as the cargo domain) (domain or fragment, mouse, UniProt Q9WTI7-2 790-1028, looked up)
chain: PRNVLDTSWPTPPPALREASELLRELCMKNMVWKYCRSISPEWKQQLQQKAVASEIFKGKKDNYPQSVPRLFISTRLGTEEISPRVLQSLGSEPIQYAVPVVKYDRKGYKPRPRQLLLTPSAVVIVEDAKVKQRIDYANLTGISVSSLSDSLFVLHVQREDNKQKGDVVLQSDHVIETLTKTALSADRVNNININQGSITFAGGPGRDGIIDFTSGSELLITKAKNGHLAVVAPRLNSR
In the case of B1, the binding result is “binds”.
